According to publication PMC6195595, “Structure-based redesign of docking domain interactions modulates the product spectrum of a rhabdopeptide-synthesizing NRPS” (Nature Communications, 2018):

T1: Kj12A N-terminal docking domain (Xenorhabdus stockiae KJ12.1)
T1 construct: also called Kj12A-NDD; source: E. coli BL21-Gold(DE3), purified (HisTrap, Ulp1 cleavage, anion exchange, SEC)
T1 chain: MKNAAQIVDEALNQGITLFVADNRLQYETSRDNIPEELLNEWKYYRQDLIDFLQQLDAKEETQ

T2: Kj12B N-terminal docking domain (Xenorhabdus stockiae KJ12.1)
T2 construct: also called Kj12B-NDD; source: E. coli BL21-Gold(DE3), purified (HisTrap, Ulp1 cleavage, anion exchange, SEC)
T2 chain: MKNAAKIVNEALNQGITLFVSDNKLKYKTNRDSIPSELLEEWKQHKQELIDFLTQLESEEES

B1: Kj12B C-terminal docking domain peptide (peptide)
peptide: LLKEKRKHFQAEQNSSQEYLRGEI
notes: also called Kj12B-CDD; source: synthetic peptide, bought: JPT Peptides Technologies GmbH
B2: Kj12B-CDDshort peptide (peptide)
peptide: QEYLRGEI
notes: source: synthetic peptide (Fmoc solid-phase synthesis, preparative HPLC)
B3: Kj12B-CDDshort G1566A peptide (peptide)
peptide: QEYLRAEI
notes: as for B2
B4: Kj12B-CDDshort L1564A peptide (peptide)
peptide: QEYARGEI
notes: as for B2
B5: Kj12C N-terminal docking domain (domain or fragment)
chain: MIDAAQIVDEALEQGITLFVVNNRLQYETSRDSIPTELLNKWKQHKQELIDFLNQLDSEEQTK
notes: Kj12C of Xenorhabdus stockiae KJ12.1, N-terminal docking domain, 63 residues; 15N-labelled for the NMR titrations; also called Kj12C-NDD; source: E. coli BL21-Gold(DE3), purified (HisTrap, Ulp1 cleavage, anion exchange, SEC); not shown: His6-SUMO, N-terminal, cleaved

How the values were obtained:
Assay in all cases: ITC; 50 µM NDD (or Kj12C construct) in the cell titrated with 1 mM CDD peptide; 20 °C; 50 mM sodium phosphate pH 6.5, 100 mM NaCl; one site binding model; three independent titrations
Details in all cases: both partners purified
[1] = molecular target: T1, Kj12A N-terminal docking domain
[2] = molecular target: T2, Kj12B N-terminal docking domain
[3] = molecular target: B5
[4] = molecular target: B5
[5] = molecular target: T3, Kj12B-CDDshort R1565E peptide (Xenorhabdus stockiae KJ12.1, R1565E (stands in the printed letters))
T3 construct: source: synthetic peptide (Fmoc solid-phase synthesis, preparative HPLC)

Binder	stoichiometry N [3]	Kd [4]	also measured
B1	0.9 ± 0.12 sites	–	stoichiometry N [1]: 0.81 ± 0.01 sites; stoichiometry N [2]: 1 sites
B2	1.05 ± 0.11 sites	–	–
B3	–	> 100 µM	–
B4	–	> 100 µM	–
B5	–	–	Kd [5]: > 100 µM
